Measurements taken from US20180282393A1 (IMMATICS BIOTECHNOLOGIES, published 2018).

B1: HLLGHLEQA (peptide)
peptide: HLLGHLEQA
B2: SLADSLYNL (peptide)
peptide: SLADSLYNL
B3: SLAESLDQA (peptide)
peptide: SLAESLDQA
B4: ALLDGGSEAYWRV (peptide)
peptide: ALLDGGSEAYWRV
B5: NIIELVHQV (peptide)
peptide: NIIELVHQV
B6: SILRHVAEV (peptide)
peptide: SILRHVAEV
B7: SLDENSDQQV (peptide)
peptide: SLDENSDQQV
B8: ILASLATSV (peptide)
peptide: ILASLATSV
B9: SIYEYYHAL (peptide)
peptide: SIYEYYHAL
B10: KVANIIAEV (peptide)
peptide: KVANIIAEV
B11: HLIAEIHTA (peptide)
peptide: HLIAEIHTA
notes: also called PTHL-001
B12: FLDNGPKTI (peptide)
peptide: FLDNGPKTI
B13: KVADYIPQL (peptide)
peptide: KVADYIPQL
B14: GQDVGRYQV (peptide)
peptide: GQDVGRYQV
B15: KITEAIQYV (peptide)
peptide: KITEAIQYV
B16: ALQEALENA (peptide)
peptide: ALQEALENA
B17: VLVPYEPPQV (peptide)
peptide: VLVPYEPPQV
B18: ALADGVVSQA (peptide)
peptide: ALADGVVSQA
B19: KLIDDVHRL (peptide)
peptide: KLIDDVHRL
B20: AVLPHVDQV (peptide)
peptide: AVLPHVDQV
B21: VLINTSVTL (peptide)
peptide: VLINTSVTL

Target: T1, HLA-A*02:01 (human)
T1 construct: Captured on streptavidin plates and detected with anti-b2m; also called peptide-receptive MHC molecules; MHC class I
Assay: UV-ligand exchange, anti-b2m ELISA; peptide exchange yield grade (+ >=10%, ++ >=20%, +++ >=50, ++++ >=75%)
Excerpt: Candidate peptides for T cell based therapies according to the present invention were further tested for their MHC binding capacity (affinity). The individual peptide-MHC complexes were produced by UV-ligand exchange, where a UV-sensitive peptide is cleaved upon UV-irradiation, and exchanged with the peptide of interest as analyzed. Only peptide candidates that can effectively bind and stabilize the peptide-receptive MHC molecules prevent dissociation of the MHC complexes. To determine the yield of the exchange reaction, an ELISA was performed based on the detection of the light chain (β2m) of stabilized MHC complexes. The assay was performed as generally described in Rodenko et al. (Rodenko et al., 2006).
96 well MAXISorp plates (NUNC) were coated over night with 2 ug/ml streptavidin in PBS at room temperature, washed 4× and blocked for 1 h at 37° C. in 2% BSA containing blocking buffer. Refolded HLA-A*02:01/MLA-001 monomers served as standards, covering the range of 15-500 ng/ml. Peptide-MHC monomers of the UV-exchange reaction were diluted 100 fold in blocking buffer. Samples were incubated for 1 h at 37° C., washed four times, incubated with 2 ug/ml HRP conjugated anti-β2m for 1 h at 37° C., washed again and detected with TMB solution that is stopped with […]. Absorption was measured at 450 nm. Candidate peptides that show a high exchange yield (preferably higher than 50%, most preferred higher than 75%) are generally preferred for a generation and production of antibodies or fragments thereof, and/or T cell receptors or fragments thereof, as they show sufficient avidity to the MHC molecules and prevent dissociation of the MHC complexes.

| Binder | peptide exchange yield |
| --- | --- |
| B1 | 50 to 75% |
| B2 | 20 to 50% |
| B3 | 50 to 75% |
| B4 | 50 to 75% |
| B5 | ≥ 75% |
| B6 | 20 to 50% |
| B7 | 50 to 75% |
| B8 | 50 to 75% |
| B9 | 50 to 75% |
| B10 | 20 to 50% |
| B11 | 50 to 75% |
| B12 | 50 to 75% |
| B13 | 50 to 75% |
| B14 | 20 to 50% |
| B15 | 50 to 75% |
| B16 | 20 to 50% |
| B17 | 20 to 50% |
| B18 | 50 to 75% |
| B19 | ≥ 75% |
| B20 | 50 to 75% |
| B21 | 50 to 75% |
